Measured values as given in paper PMC5118228 (EJNMMI Research, 2016).

System: tumor and normal organs of mice
Assay: Radiation dosimetry (MIRD schema, Olinda/EXM spherical S-factors)
Assay type: in vivo
Conditions: tumor-bearing mice, calculated
Experimental: Saturation of receptor-specific tumor uptake was investigated by determining the kinetics of the tumor uptake with increasing injected mass of peptide. The time-activity curves for the tumor and normal organs were fitted by single-exponential functions using Prism-5 (GraphPad). Goodness of fit was analyzed with the Pearson correlation coefficient R ^2 > 0.8. Both F test and the Aikake information criterion were used to decide on the complexity of the curves.
Dosimetry was performed according to the MIRD schema by using the spherical nodes S-factors from the Olinda/EXM software. S-factors were interpolated from the actual weight of the organs and tissue. All organs and tissue were assumed to be spherical with a density of […]. Mean radiation absorbed doses were obtained as a function-injected mass of peptide, assuming a homogeneous distribution in the tumor and organs. […] Owing to the short path length of α-particles, only the self-dose within each organ was included. The threshold for lethality was determined with renal absorbed dose and injected activity as indicators. Logistic regression analysis was used to determine the LD50 for presumed renal toxicity-related death.

## C[C@@H](O)[C@H](NC(=O)[C@@H]1CSSC[C@H](NC(=O)[C@@H](Cc2ccccc2)NC(=O)CN2CCN(CC(=O)O)CCN(CC(=O)O)CCN(CC(=O)O)CC2)C(=O)N[C@@H](Cc2ccc(O)cc2)C(=O)N[C@H](Cc2c[nH]c3ccccc23)C(=O)N[C@@H](CCCCN)C(=O)N[C@@H]([C@@H](C)O)C(=O)N1)C(=O)O [^213Bi-DOTATATE, metal not drawn]
With L-lysine (35 mg)
  Radiation absorbed dose per administered activity, Stomach, Total β: 3.00E-03 Gy/MBq
  Radiation absorbed dose per administered activity, Stomach, ^209Pb β: 2.20E-04 Gy/MBq
  Radiation absorbed dose per administered activity, Stomach, ^209Tl β + γ: 7.00E-05 Gy/MBq
  Radiation absorbed dose per administered activity, Stomach, ^213Bi α: 9.00E-04 Gy/MBq
  Radiation absorbed dose per administered activity, Stomach, ^213Bi β: 2.60E-03 Gy/MBq
  Radiation absorbed dose per administered activity, Stomach, ^213Po α: 6.00E-02 Gy/MBq
  Radiation absorbed dose per administered activity, Tumor, Total α: 6.14E-01 Gy/MBq
  Radiation absorbed dose per administered activity, Tumor, Total β: 4.40E-02 Gy/MBq
  Radiation absorbed dose per administered activity, Tumor, ^209Pb β: 1.41E-02 Gy/MBq
  Radiation absorbed dose per administered activity, Tumor, ^209Tl β + γ: 8.60E-04 Gy/MBq
  Radiation absorbed dose per administered activity, Tumor, ^213Bi α: 9.20E-03 Gy/MBq
  Radiation absorbed dose per administered activity, Tumor, ^213Bi β: 2.87E-02 Gy/MBq
  Radiation absorbed dose per administered activity, Tumor, ^213Po α: 6.05E-01 Gy/MBq
Without L-lysine
  Radiation absorbed dose per administered activity, Adrenals, Total α: 3.60E-02 Gy/MBq
  Radiation absorbed dose per administered activity, Adrenals, Total β: 2.00E-03 Gy/MBq
  Radiation absorbed dose per administered activity, Adrenals, ^209Pb β: 2.00E-04 Gy/MBq
  Radiation absorbed dose per administered activity, Adrenals, ^209Tl β + γ: 2.00E-05 Gy/MBq
  Radiation absorbed dose per administered activity, Adrenals, ^213Bi α: 5.00E-04 Gy/MBq
  Radiation absorbed dose per administered activity, Adrenals, ^213Bi β: 1.50E-03 Gy/MBq
  Radiation absorbed dose per administered activity, Adrenals, ^213Po α: 3.56E-02 Gy/MBq
  Radiation absorbed dose per administered activity, Blood, Total α: 9.00E-02 Gy/MBq
  Radiation absorbed dose per administered activity, Blood, Total β: 5.00E-03 Gy/MBq
  Radiation absorbed dose per administered activity, Blood, ^209Pb β: 1.60E-04 Gy/MBq
  Radiation absorbed dose per administered activity, Blood, ^209Tl β + γ: 1.20E-04 Gy/MBq
  Radiation absorbed dose per administered activity, Blood, ^213Bi α: 1.30E-03 Gy/MBq
  Radiation absorbed dose per administered activity, Blood, ^213Bi β: 4.30E-03 Gy/MBq
  Radiation absorbed dose per administered activity, Blood, ^213Po α: 8.80E-02 Gy/MBq
  Radiation absorbed dose per administered activity, Femur, Total α: 3.20E-02 Gy/MBq
  Radiation absorbed dose per administered activity, Femur, Total β: 1.00E-03 Gy/MBq
  Radiation absorbed dose per administered activity, Femur, ^209Pb β: 1.00E-04 Gy/MBq
  Radiation absorbed dose per administered activity, Femur, ^209Tl β + γ: 3.00E-05 Gy/MBq
  Radiation absorbed dose per administered activity, Femur, ^213Bi α: 5.00E-04 Gy/MBq
  Radiation absorbed dose per administered activity, Femur, ^213Bi β: 1.30E-03 Gy/MBq
  Radiation absorbed dose per administered activity, Femur, ^213Po α: 3.16E-02 Gy/MBq
  Radiation absorbed dose per administered activity, Kidney, Total α: 1.07E+00 Gy/MBq
  Radiation absorbed dose per administered activity, Kidney, Total β: 5.50E-02 Gy/MBq
  Radiation absorbed dose per administered activity, Kidney, ^209Pb β: 6.20E-03 Gy/MBq
  Radiation absorbed dose per administered activity, Kidney, ^209Tl β + γ: 1.30E-03 Gy/MBq
  Radiation absorbed dose per administered activity, Kidney, ^213Bi α: 1.61E-02 Gy/MBq
  Radiation absorbed dose per administered activity, Kidney, ^213Bi β: 4.71E-02 Gy/MBq
  Radiation absorbed dose per administered activity, Pancreas, Total α: 1.34E-01 Gy/MBq
  Radiation absorbed dose per administered activity, Pancreas, Total β: 5.00E-03 Gy/MBq
  Radiation absorbed dose per administered activity, Pancreas, ^209Pb β: 7.00E-04 Gy/MBq
  Radiation absorbed dose per administered activity, Pancreas, ^209Tl β + γ: 1.00E-04 Gy/MBq
  Radiation absorbed dose per administered activity, Pancreas, ^213Bi α: 2.00E-03 Gy/MBq
  Radiation absorbed dose per administered activity, Pancreas, ^213Bi β: 4.50E-03 Gy/MBq
  Radiation absorbed dose per administered activity, Pancreas, ^213Po α: 1.32E-01 Gy/MBq
  Radiation absorbed dose per administered activity, Stomach, Total α: 9.00E-02 Gy/MBq
  Radiation absorbed dose per administered activity, Stomach, Total β: 5.00E-03 Gy/MBq
  Radiation absorbed dose per administered activity, Stomach, ^209Pb β: 5.90E-04 Gy/MBq
  Radiation absorbed dose per administered activity, Stomach, ^209Tl β + γ: 1.10E-04 Gy/MBq
  Radiation absorbed dose per administered activity, Stomach, ^213Bi α: 1.30E-03 Gy/MBq
  Radiation absorbed dose per administered activity, Stomach, ^213Bi β: 3.90E-03 Gy/MBq
  Radiation absorbed dose per administered activity, Stomach, ^213Po α: 8.84E-02 Gy/MBq
  Radiation absorbed dose per administered activity, Tumor, Total α: 6.61E-01 Gy/MBq
  Radiation absorbed dose per administered activity, Tumor, Total β: 4.80E-02 Gy/MBq
  Radiation absorbed dose per administered activity, Tumor, ^209Pb β: 1.58E-02 Gy/MBq
  Radiation absorbed dose per administered activity, Tumor, ^209Tl β + γ: 9.60E-04 Gy/MBq
  Radiation absorbed dose per administered activity, Tumor, ^213Bi α: 9.90E-03 Gy/MBq
  Radiation absorbed dose per administered activity, Tumor, ^213Bi β: 3.14E-02 Gy/MBq
  Radiation absorbed dose per administered activity, Tumor, ^213Po α: 6.51E-01 Gy/MBq
